Laboratory results: patent publication US20050215472A1
Where “and” joins values, the source holds several entries; their conditions need not be identical. Equal values may be shown once.

Assays:
[1] = biological target: prostate specific membrane antigen (PSMA), full-length human (human) (UniProt Q04609); assay: cell-bound fraction of 111In mAb, average
[2] = biological target: prostate specific membrane antigen (PSMA), full-length human (human) (UniProt Q04609); assay: cell-bound fraction of 111In mAb, PSMA-3T3 cells
[3] = biological target: prostate specific membrane antigen (PSMA), full-length human (human) (UniProt Q04609); assay: cell-based or functional assay

Chain of prostate specific membrane antigen (PSMA), full-length human (human) (Q04609 whole entry): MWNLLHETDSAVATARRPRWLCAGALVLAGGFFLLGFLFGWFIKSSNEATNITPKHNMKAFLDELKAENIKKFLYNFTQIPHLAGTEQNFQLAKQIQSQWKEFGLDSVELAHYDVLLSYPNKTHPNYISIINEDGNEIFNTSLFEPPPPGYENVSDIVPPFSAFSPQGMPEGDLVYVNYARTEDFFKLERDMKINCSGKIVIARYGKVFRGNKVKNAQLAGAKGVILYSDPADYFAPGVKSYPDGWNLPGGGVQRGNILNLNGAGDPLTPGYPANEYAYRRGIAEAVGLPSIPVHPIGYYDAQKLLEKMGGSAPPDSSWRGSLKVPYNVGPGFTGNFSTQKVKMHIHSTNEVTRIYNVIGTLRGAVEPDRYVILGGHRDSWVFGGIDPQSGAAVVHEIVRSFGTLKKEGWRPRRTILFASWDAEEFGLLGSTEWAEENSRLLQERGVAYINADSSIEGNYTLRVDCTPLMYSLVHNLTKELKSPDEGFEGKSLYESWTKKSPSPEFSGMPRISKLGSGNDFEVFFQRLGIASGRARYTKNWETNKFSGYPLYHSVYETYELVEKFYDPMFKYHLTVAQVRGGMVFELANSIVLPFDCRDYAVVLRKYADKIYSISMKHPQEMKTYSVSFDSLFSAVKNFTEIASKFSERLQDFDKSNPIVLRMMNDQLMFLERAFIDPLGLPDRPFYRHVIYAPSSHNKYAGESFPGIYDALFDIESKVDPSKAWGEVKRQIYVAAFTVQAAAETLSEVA

Substance	Immunoreactivity (%), average [1]	Immunoreactivity (%) [2]	LD50, immunotoxin (Mab-Zap saporin) cytotoxicity on C4-2 cells [3]	LD50, immunotoxin (Mab-Zap saporin) cytotoxicity on PSMA-3T3 cells [3]
111In radiolabeled CHX-A''-DTPA mJ591 (antibody)	56.7%	58.5% and 54.9%		
mAb J591 (antibody)			88.2 pM	89 pM
